# Paper PMC2793008
# Target: integrin alpha2beta1 (human (endogenous in cord blood derived megakaryocytes)) (UniProt P17301)
# Sequence of UniProt P17301 (P17301 30-1181, chain 1 of 2): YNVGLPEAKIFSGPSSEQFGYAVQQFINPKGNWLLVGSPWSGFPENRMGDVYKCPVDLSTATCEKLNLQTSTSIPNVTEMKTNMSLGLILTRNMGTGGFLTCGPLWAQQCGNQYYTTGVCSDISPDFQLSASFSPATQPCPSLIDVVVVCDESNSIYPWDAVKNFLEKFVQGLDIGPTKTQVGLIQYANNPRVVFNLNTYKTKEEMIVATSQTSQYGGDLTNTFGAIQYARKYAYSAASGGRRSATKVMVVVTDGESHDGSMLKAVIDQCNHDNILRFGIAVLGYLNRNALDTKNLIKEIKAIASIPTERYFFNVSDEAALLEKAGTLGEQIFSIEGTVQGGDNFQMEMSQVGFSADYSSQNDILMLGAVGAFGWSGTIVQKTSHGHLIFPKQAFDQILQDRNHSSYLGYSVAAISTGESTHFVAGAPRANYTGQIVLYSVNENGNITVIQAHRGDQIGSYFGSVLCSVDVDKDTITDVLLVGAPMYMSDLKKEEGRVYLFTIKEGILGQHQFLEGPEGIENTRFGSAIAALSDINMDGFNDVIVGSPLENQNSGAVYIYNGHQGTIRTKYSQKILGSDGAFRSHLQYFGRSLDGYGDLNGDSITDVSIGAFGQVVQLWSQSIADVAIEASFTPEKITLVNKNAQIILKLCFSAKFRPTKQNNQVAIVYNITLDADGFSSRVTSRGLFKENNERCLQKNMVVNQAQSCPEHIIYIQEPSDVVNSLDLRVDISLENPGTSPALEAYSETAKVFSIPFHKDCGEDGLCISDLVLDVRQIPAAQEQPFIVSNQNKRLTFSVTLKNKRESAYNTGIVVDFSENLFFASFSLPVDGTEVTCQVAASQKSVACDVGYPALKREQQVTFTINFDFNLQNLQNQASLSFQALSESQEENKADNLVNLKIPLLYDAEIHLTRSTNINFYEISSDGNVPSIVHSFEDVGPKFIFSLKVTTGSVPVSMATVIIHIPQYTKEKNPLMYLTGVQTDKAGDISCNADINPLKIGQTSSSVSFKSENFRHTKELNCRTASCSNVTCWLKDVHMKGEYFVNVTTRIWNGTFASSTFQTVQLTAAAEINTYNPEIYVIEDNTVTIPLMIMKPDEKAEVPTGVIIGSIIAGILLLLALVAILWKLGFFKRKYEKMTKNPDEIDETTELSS
# Sequence of UniProt P17301 (P05556 21-798, chain 2 of 2, further chain): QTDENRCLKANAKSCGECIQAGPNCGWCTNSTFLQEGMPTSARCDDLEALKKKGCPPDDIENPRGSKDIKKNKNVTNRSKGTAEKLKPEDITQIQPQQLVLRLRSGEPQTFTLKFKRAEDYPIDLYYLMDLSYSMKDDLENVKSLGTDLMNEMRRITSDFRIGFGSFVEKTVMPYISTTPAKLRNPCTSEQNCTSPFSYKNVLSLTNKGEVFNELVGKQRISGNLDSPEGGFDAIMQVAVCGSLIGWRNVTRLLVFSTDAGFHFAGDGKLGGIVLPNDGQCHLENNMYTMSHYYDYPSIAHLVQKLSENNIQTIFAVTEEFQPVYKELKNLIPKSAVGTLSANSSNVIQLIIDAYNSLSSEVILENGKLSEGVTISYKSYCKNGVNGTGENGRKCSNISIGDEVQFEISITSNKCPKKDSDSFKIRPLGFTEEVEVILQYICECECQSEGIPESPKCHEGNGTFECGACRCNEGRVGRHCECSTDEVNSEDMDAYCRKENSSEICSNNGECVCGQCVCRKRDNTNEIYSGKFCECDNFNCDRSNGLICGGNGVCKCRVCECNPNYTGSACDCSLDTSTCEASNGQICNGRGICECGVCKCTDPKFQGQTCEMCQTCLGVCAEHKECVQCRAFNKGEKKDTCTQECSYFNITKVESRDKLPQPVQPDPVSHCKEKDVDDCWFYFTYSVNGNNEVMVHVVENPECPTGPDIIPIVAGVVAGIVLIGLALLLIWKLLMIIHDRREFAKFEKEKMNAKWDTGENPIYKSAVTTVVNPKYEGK
substance,measurement,value
type I collagen (from UniProt P02452 162-1218; P08123 80-1119) (complex),"adhesion of mature megakaryocytes to hOSTs (day 18) after pre-incubation with 30 µg/mL anti-integrin alpha2 monoclonal antibody P1E6, against unrelated IgG",30%
